Literature values as cited in paper PMC3128988.
pKd: −log10 of the molar value.

Molecular target: CD47 (Homo sapiens) (UniProt Q08722)
Sequence of UniProt Q08722 (Q08722 19-323): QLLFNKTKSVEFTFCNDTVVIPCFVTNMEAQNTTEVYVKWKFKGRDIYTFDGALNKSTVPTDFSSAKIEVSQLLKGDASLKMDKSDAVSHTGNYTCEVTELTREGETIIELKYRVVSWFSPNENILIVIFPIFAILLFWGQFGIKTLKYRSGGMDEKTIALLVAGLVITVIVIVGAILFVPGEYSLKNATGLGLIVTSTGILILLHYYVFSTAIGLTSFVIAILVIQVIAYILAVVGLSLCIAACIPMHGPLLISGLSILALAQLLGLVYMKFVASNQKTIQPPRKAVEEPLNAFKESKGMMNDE

In the case of SIRPα (from UniProt P78324), the pKd is given as 6.00.
